Measured values: patent US20150210761A1 (SAMSUNG ELECTRONICS, published 2015)

Experiments:
[1] = target: T1, mouse Ang2 (Accession # NP-031452) (R&D Systems) (mouse, UniProt O35608 19-496); experiment: ELISA on coated mouse Ang2; 50% binding concentration, which the filing calls Kd
T1 construct: Bought protein coated on the ELISA plate; also called mAng2
T1 sequence (looked up): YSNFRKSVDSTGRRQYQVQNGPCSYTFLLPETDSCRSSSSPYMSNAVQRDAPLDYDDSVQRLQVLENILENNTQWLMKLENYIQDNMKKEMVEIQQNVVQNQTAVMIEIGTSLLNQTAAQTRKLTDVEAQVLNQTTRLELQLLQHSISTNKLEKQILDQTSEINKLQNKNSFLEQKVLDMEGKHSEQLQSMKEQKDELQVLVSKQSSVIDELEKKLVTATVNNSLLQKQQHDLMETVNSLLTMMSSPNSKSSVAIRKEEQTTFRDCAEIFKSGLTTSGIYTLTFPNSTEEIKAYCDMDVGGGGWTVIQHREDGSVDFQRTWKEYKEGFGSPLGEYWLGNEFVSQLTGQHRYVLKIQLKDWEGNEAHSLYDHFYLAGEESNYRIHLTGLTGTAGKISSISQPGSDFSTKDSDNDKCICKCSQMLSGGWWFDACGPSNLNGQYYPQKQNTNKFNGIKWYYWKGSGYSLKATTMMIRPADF
Method: An ELISA was conducted to measure the binding affinity of the antibodies prepared in Example 2 to mouse Ang2(mAng2). MaxiSorp™ flat-bottom plate (Nunc) of 96-well was coated with 5-20 μg/ml of mouse Ang2 (Mouse Ang2; Accession # NP_{—}031452) (R&D Systems). Thereafter, the plate was washed five times with 0.05% (v/v) Tween-20-containing PBS (PBST) and then blocked with 1% (v/v) BSA (bovine serum albumin; Sigma)-containing PBS at a room temperature for 2 hour. Each of the anti-Ang2 antibodies was added to each well of the plate at various concentrations, and the plate was allowed to react at a room temperature for 2 hours.
Thereafter, the plate was washed five times with PBST. Then, a HRP-conjugated anti-mouse IgG antibody (Santacruz) diluted in 1% (v/v) BSA-containing PBS at a ratio of 1:1,000 (v/v) was added in an amount of 50 μl to each well to react at a room temperature for 1 hour and then, the plate was washed five times with PBST. Lastly, 100 μl of TMB substrate (Cell Signaling) was added to each well of the plate to induce color development for 3 min. and then, the reaction was ceased by the addition of 100 μl of Stop solution (Cell Signaling) and OD450 values were measured on a plate reader (Molecular Devices).
From the obtained results, 50% binding concentration (Kd) of the anti-Ang2 antibody to Ang2 protein is obtained, thereby measuring the binding intensity of each of the anti-Ang2 antibodies to Ang2.

[2] = target: Ang2 RBD mutant A449 (human) (UniProt O15123); experiment: ELISA; antibody coated, FLAG-tagged RBD mutant, anti-FLAG-HRP detection
Ang2 RBD mutant S417 = target: T2, Ang2 RBD mutant S417 (human, UniProt O15123 276-496); experiment: as above
T2 chain: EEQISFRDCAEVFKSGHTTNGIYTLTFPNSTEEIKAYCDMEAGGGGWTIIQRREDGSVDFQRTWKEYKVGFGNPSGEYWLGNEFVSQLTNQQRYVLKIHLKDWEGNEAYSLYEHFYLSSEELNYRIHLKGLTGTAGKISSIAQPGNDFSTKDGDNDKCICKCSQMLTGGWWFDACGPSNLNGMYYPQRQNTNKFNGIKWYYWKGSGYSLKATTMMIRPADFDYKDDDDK

Ang2 RBD mutant Q418 = target: T3, Ang2 RBD mutant Q418 (human, UniProt O15123 276-496); experiment: as above
T3 chain: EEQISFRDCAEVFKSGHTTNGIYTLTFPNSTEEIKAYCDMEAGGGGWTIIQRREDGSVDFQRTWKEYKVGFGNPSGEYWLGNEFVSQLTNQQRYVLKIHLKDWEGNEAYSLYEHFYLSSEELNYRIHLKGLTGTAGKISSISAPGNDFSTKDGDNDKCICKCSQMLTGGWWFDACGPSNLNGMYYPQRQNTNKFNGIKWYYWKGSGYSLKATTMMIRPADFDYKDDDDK

Ang2 RBD mutant D448 = target: T4, Ang2 RBD mutant D448 (human, UniProt O15123 276-496); experiment: as above
T4 chain: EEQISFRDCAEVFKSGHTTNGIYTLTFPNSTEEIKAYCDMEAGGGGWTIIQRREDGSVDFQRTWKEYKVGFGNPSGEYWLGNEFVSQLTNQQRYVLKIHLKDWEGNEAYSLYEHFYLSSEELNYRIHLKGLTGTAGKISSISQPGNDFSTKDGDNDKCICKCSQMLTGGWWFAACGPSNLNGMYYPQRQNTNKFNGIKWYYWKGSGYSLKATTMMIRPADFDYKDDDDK

Ang2 RBD mutant N467 = target: T5, Ang2 RBD mutant N467 (human, UniProt O15123 276-496); experiment: as above
T5 chain: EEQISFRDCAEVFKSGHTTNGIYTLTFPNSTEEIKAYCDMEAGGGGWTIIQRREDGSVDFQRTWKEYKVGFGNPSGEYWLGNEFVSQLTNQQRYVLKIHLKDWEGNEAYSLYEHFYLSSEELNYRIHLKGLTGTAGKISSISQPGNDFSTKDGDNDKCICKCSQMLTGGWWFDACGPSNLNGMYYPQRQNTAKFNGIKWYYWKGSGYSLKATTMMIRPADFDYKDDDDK

Ang2 RBD mutant F469 = target: T6, Ang2 RBD mutant F469 (human, UniProt O15123 276-496); experiment: as above
T6 chain: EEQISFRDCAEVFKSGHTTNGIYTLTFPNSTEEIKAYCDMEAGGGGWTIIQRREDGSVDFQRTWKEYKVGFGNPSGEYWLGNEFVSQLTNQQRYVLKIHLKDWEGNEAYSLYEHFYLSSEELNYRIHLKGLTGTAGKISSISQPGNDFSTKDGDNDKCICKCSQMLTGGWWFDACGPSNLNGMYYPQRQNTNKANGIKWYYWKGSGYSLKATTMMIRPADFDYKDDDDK

B1: SAIT-ANG2-AB-m8D3 (antibody, V domains shown)
VH: EVQLQQSGPELVKPGDSVKMSCKASGYTFTDYYMKWVRQSHGKSLQWVGEINPKNGDTFYNQIFKGKATLTVDKSSSTAYMQLTSLTSEDSAVYYCTRENDYDVGFFDYWGQGTSVTVSS
VL: TIVMTQTPKFLLVSAGDRITITCKASQSVSNDVAWYQQKPGQSPKLLIYYASNRYPGVPDRFTGSGYGTDFTFTISTVQAEDLAVYFCQQDYTSPWTFGGGTELEIK
notes: also called hybridoma KCLRF-BP-00308
Kd [1]: 141 nM

B2: SAIT-ANG2-AB-m1A10 (antibody, V domains shown)
VH: QVQLQQSGAELMKPGASVKISCKATDYTFSSYWLEWLIQRPGHGLEWIGEILPGSGSTNYNEKFRGKATFTEDTSSNTAYMQLSSLTSEDSAVYYCARGNHNSYYYAMDYWGQGTSVTVSS
VL: DIVLTQSPASLAVSLGQRATISCRASESVDSYGNSFMHWYQQKPGQPPKLLIYRASNLDSGIPARFSGSGSRTDFTLTINPVEADDVATYYCQQSNEDPLTFGAGTKLELK
notes: also called hybridoma KCLRF-BP-00306
Binding (%) (mutant Ang2 / native Ang2) [2]: 95.6%
Binding (%) (mutant Ang2 / native Ang2) (Ang2 RBD mutant S417): 100%
Binding (%) (mutant Ang2 / native Ang2) (Ang2 RBD mutant Q418): 97.2%
Binding (%) (mutant Ang2 / native Ang2) (Ang2 RBD mutant D448): 95.3%
Binding (%) (mutant Ang2 / native Ang2) (Ang2 RBD mutant N467): 79.4%
Binding (%) (mutant Ang2 / native Ang2) (Ang2 RBD mutant F469): 77.9%

B3: SAIT-ANG2-AB-m3E2 (antibody, V domains shown)
VH: EVQLQQSGAELVKPGASVKLSCTASGFNIKDPYIHWVKQRPEQGLEWIGRIDPANGNTKYDPKFQGKATITADTSSNTAYLQLSSLTSEDTAVYYCVRRWDGGGFDYWGQGTSVTVSS
VL: DIQMTQTTSSLSASLGDRVTISCRASQDISNYLNWYQQKPDGTVKLLIYYTSRLHSGVPSRFSGSGSGTDYSLTITNLEQEDIATYFCQQGNTLPWTFGGGTKLEIK
notes: also called hybridoma KCLRF-BP-00305
Kd [1]: 130 nM
